{
  "source": "the supplement of paper PMC10567573",
  "parents": {"B1": {"name": "TMEM40 (parent)", "chain": "YGETDFHKQDGKAGLFSQEQYERN"}},
  "data": [
    {"variants_of": "B1", "assay": "protein stability index of a GFP-peptide fusion (GPS, HEK-293T) (PSI 1-6); higher = more stable", "details": "c terminus: a fixed tail appended", "values": [
      {"variant": "YGETDFHKQDGKAGLFSQEQYEAN", "protein stability index": 4.69},
      {"variant": "YGETDFHKQDGKAGLFSQEQYENN", "protein stability index": 4.16},
      {"variant": "YGETDFHKQDGKAGLFSQEQYEIN", "protein stability index": 4.11},
      {"variant": "YGETDFHKQDGKAGLFSQEQYEFN", "protein stability index": 4.04},
      {"variant": "YGETDFHKQDGKAGLFSQEQYESN", "protein stability index": 4.37},
      {"variant": "YGETDFHKQDGKAGLFSQEQYECN", "protein stability index": 4.32},
      {"variant": "YGETDFHKQDGKAGLFSQEQYEWN", "protein stability index": 4.13},
      {"variant": "YGETDFHKQDGKAGLFSQEQYELN", "protein stability index": 4},
      {"variant": "YGETDFHKQDGKAGLFSQEQYEDN", "protein stability index": 4.9},
      {"variant": "YGETDFHKQDGKAGLFSQEQYEQN", "protein stability index": 4.3},
      {"variant": "YGETDFHKQDGKAGLFSQEQYEMN", "protein stability index": 4.17},
      {"variant": "YGETDFHKQDGKAGLFSQEQYETN", "protein stability index": 4.62},
      {"variant": "YGETDFHKQDGKAGLFSQEQYEYN", "protein stability index": 4.02},
      {"variant": "YGETDFHKQDGKAGLFSQEQYEKN", "protein stability index": 4.37},
      {"variant": "YGETDFHKQDGKAGLFSQEQYEEN", "protein stability index": 4.7},
      {"variant": "YGETDFHKQDGKAGLFSQEQYEGN", "protein stability index": 4.58},
      {"variant": "YGETDFHKQDGKAGLFSQEQYEPN", "protein stability index": 4.21},
      {"variant": "YGETDFHKQDGKAGLFSQEQYEHN", "protein stability index": 4.3},
      {"variant": "YGETDFHKQDGKAGLFSQEQYEVN", "protein stability index": 3.67},
      {"variant": "YGETDFHKQDGKAGLFSQRQYERN", "protein stability index": 3.49},
      {"variant": "YGETDFHKQDGKAGLFSQMQYERN", "protein stability index": 3.15},
      {"variant": "YGETDFHKQDGKAGLFSQHQYERN", "protein stability index": 3.29},
      {"variant": "YGETDFHKQDGKAGLFSQPQYERN", "protein stability index": 3.72},
      {"variant": "YGETDFHKQDGKAGLFSQSQYERN", "protein stability index": 3.6},
      {"variant": "YGETDFHKQDGKAGLFSQTQYERN", "protein stability index": 3.73},
      {"variant": "YGETDFHKQDGKAGLFSQNQYERN", "protein stability index": 3.9},
      {"variant": "YGETDFHKQDGKAGLFSQVQYERN", "protein stability index": 3.22},
      {"variant": "YGETDFHKQDGKAGLFSQWQYERN", "protein stability index": 2.64},
      {"variant": "YGETDFHKQDGKAGLFSQKQYERN", "protein stability index": 3.23},
      {"variant": "YGETDFHKQDGKAGLFSQGQYERN", "protein stability index": 3.66},
      {"variant": "YGETDFHKQDGKAGLFSQIQYERN", "protein stability index": 2.23},
      {"variant": "YGETDFHKQDGKAGLFSQQQYERN", "protein stability index": 3.7},
      {"variant": "YGETDFHKQDGKAGLFSQYQYERN", "protein stability index": 3.15},
      {"variant": "YGETDFHKQDGKAGLFSQLQYERN", "protein stability index": 2.21},
      {"variant": "YGETDFHKQDGKAGLFSQEQYYRN", "protein stability index": 3.23},
      {"variant": "YGETDFHKQDGKAGLFSQEQYVRN", "protein stability index": 3.76},
      {"variant": "YGETDFHKQDGKAGLFSQEQYKRN", "protein stability index": 3.67},
      {"variant": "YGETDFHKQDGKAGLFSQEQYHRN", "protein stability index": 3.34},
      {"variant": "YGETDFHKQDGKAGLFSQEQYTRN", "protein stability index": 4.01},
      {"variant": "YGETDFHKQDGKAGLFSQEQYWRN", "protein stability index": 2.74},
      {"variant": "YGETDFHKQDGKAGLFSQEQYCRN", "protein stability index": 3.61},
      {"variant": "YGETDFHKQDGKAGLFSQEQYIRN", "protein stability index": 3.29},
      {"variant": "YGETDFHKQDGKAGLFSQEQYARN", "protein stability index": 3.91},
      {"variant": "YGETDFHKQDGKAGLFSQEQYQRN", "protein stability index": 3.8},
      {"variant": "YGETDFHKQDGKAGLFSQEQYMRN", "protein stability index": 3.64},
      {"variant": "YGETDFHKQDGKAGLFSQEQYLRN", "protein stability index": 3.61},
      {"variant": "YGETDFHKQDGKAGLFSQEQYDRN", "protein stability index": 4.03},
      {"variant": "YGETDFHKQDGKAGLFSQEQYRRN", "protein stability index": 3.71},
      {"variant": "YGETDFHKQDGKAGLFSQEQYNRN", "protein stability index": 3.85},
      {"variant": "YGETDFHKQDGKAGLFSQEQYGRN", "protein stability index": 3.83},
      {"variant": "YGETDFHKQDGKAGLFSQEQYFRN", "protein stability index": 3.19},
      {"variant": "YGETDFHKQDGKAGLFSQEQYPRN", "protein stability index": 3.48},
      {"variant": "YGETDFHKQDGKAGLFSQEQMERN", "protein stability index": 3.92},
      {"variant": "YGETDFHKQDGKAGLFSQEQQERN", "protein stability index": 4.44},
      {"variant": "YGETDFHKQDGKAGLFSQEQLERN", "protein stability index": 4.07},
      {"variant": "YGETDFHKQDGKAGLFSQEQEERN", "protein stability index": 4.35},
      {"variant": "YGETDFHKQDGKAGLFSQEQSERN", "protein stability index": 4.63},
      {"variant": "YGETDFHKQDGKAGLFSQEQWERN", "protein stability index": 4.09},
      {"variant": "YGETDFHKQDGKAGLFSQEQDERN", "protein stability index": 4.95},
      {"variant": "YGETDFHKQDGKAGLFSQEQPERN", "protein stability index": 4.32},
      {"variant": "YGETDFHKQDGKAGLFSQEQVERN", "protein stability index": 4.38},
      {"variant": "YGETDFHKQDGKAGLFSQEQHERN", "protein stability index": 4.73},
      {"variant": "YGETDFHKQDGKAGLFSQEQGERN", "protein stability index": 4.8},
      {"variant": "YGETDFHKQDGKAGLFSQEQIERN", "protein stability index": 4.65},
      {"variant": "YGETDFHKQDGKAGLFSQEQRERN", "protein stability index": 5.25},
      {"variant": "YGETDFHKQDGKAGLFSQEQCERN", "protein stability index": 3.95},
      {"variant": "YGETDFHKQDGKAGLFSQEQTERN", "protein stability index": 5.02},
      {"variant": "YGETDFHKQDGKAGLFSQEQFERN", "protein stability index": 4.25},
      {"variant": "YGETDFHKQDGKAGLFSQEQNERN", "protein stability index": 4.47},
      {"variant": "YGETDFHKQDGKAGLFSQEQAERN", "protein stability index": 4.04},
      {"variant": "YGETDFHKQDGKAGLFSQEQKERN", "protein stability index": 4.54},
      {"variant": "YGETDFHKQDGKAGLFSQELYERN", "protein stability index": 3.42},
      {"variant": "YGETDFHKQDGKAGLFSQEEYERN", "protein stability index": 4.45},
      {"variant": "YGETDFHKQDGKAGLFSQEDYERN", "protein stability index": 4.71},
      {"variant": "YGETDFHKQDGKAGLFSQEHYERN", "protein stability index": 4.01},
      {"variant": "YGETDFHKQDGKAGLFSQEPYERN", "protein stability index": 3.55},
      {"variant": "YGETDFHKQDGKAGLFSQEYYERN", "protein stability index": 3.71},
      {"variant": "YGETDFHKQDGKAGLFSQEKYERN", "protein stability index": 3.79},
      {"variant": "YGETDFHKQDGKAGLFSQEFYERN", "protein stability index": 3.41},
      {"variant": "YGETDFHKQDGKAGLFSQETYERN", "protein stability index": 4.15},
      {"variant": "YGETDFHKQDGKAGLFSQECYERN", "protein stability index": 3.5},
      {"variant": "YGETDFHKQDGKAGLFSQEWYERN", "protein stability index": 3},
      {"variant": "YGETDFHKQDGKAGLFSQEGYERN", "protein stability index": 3.48},
      {"variant": "YGETDFHKQDGKAGLFSQEVYERN", "protein stability index": 3.66},
      {"variant": "YGETDFHKQDGKAGLFSQERYERN", "protein stability index": 3.92},
      {"variant": "YGETDFHKQDGKAGLFSQEMYERN", "protein stability index": 3.92},
      {"variant": "YGETDFHKQDGKAGLFSQESYERN", "protein stability index": 4.3},
      {"variant": "YGETDFHKQDGKAGLFSQENYERN", "protein stability index": 4.12},
      {"variant": "YGETDFHKQDGKAGLFSQEIYERN", "protein stability index": 3.85},
      {"variant": "YGETDFHKQDGKAGLFSQEAYERN", "protein stability index": 4.32},
      {"variant": "YGETDFHKQDGKAGLFSQEQYERP", "protein stability index": 3.25},
      {"variant": "YGETDFHKQDGKAGLFSQEQYERS", "protein stability index": 4.22},
      {"variant": "YGETDFHKQDGKAGLFSQEQYERG", "protein stability index": 4.12},
      {"variant": "YGETDFHKQDGKAGLFSQEQYERK", "protein stability index": 4.6}
    ]}
  ]
}
